“Also recorded” adds a separate entry of the source.
Key:
Test in all cases: Calcium imaging of cells transfected with the GPCR (Table 1)
Assay type in all cases: cell-based
MrgA3 (mouse MrgprA3) = biological target: T1, MrgA3 (mouse MrgprA3) (Mus musculus, UniProt Q91WW3); conditions: FIG. 7c: CQ 100 μM, QWF 100 μM
T1 construct: expressed in transfected cells; host or cells: HeLa cells, pcDNA3.1(-)
T1 sequence (Q91WW3 1-302): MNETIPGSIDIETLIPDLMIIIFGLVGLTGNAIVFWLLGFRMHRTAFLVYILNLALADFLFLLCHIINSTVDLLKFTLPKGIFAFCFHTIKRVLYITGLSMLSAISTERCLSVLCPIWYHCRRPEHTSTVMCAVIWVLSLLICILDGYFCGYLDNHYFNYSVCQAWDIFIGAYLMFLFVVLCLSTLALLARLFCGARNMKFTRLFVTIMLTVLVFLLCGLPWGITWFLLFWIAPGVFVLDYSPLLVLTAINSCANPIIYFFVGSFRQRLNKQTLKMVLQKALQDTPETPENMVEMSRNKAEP
Procedure: (§1) Human NK1 cDNA was obtained from LIFE Technologies, PCR cloned with Xho I-Hind III ends and cloned into pcDNA3.1(−). Mouse NK2 and NK3 expression-ready vectors were obtained from […] (Piscataway, N.J.). All other Mrgprs (human MRGPRX1, human MRGPRX2, human MRGPRX3, human MRGPRX4, mouse MrgprA2a, mouse MrgprA2b, mouse MrgprA3, mouse MrgprA4, mouse MrgprA9, mouse MrgprA10, mouse MrgprB4 and mouse MrgprB5) were cloned by PCR from genomic DNAs and inserted into pcDNA3.1 (−).
10 μg of expression vector (human MRGPRX2, mouse MrgprA1 or NK1) and 10 μl of LIPOFECTAMINE 2000 transfection reagent were diluted into 0.5 ml of DMEM and separately left at room temperature (RT) for 5 min. They were then mixed and incubated at RT for 20 minutes prior to being added to HeLa cells. HeLa cells were grown to confluence, trypsinized and 1×10^6 cells were pelleted in a 15 ml tube by centrifugation at 1000 rpm for 5 minutes. The DMEM-LIPOFECTAMINE 2000-DNA mixture (1 ml) was then added to the cell pellet, suspended and incubated at RT for 5 minutes. 2 ml of complete DMEM with 10% FBS without antibiotics were added to the tube, mixed by inverting the tube, plated into a 96-well glass bottom plate at 50,000 cells/well, and placed in a 37° C. CO2 incubator for 3 hours. HeLa cells transfected with salmon sperm DNA were plated as a control. The medium was changed after 3 hours and left in the incubator. 24 hours after transfection, the medium in the wells was removed and 100 μl of complete DMEM containing 2 μM of FURA-2 were added to each well and left at room temperature in the dark for 1 hr.
Calcium imaging was performed immediately after loading cells with Fura-2, using a ZEISS Axiovert 200M microscope platform equipped with a flipping filter wheel for ratiometric imaging. Axiovision software, version 4.6 was used for calcium image analysis of the cells excited at 340 nm and 380 nm. Agonists were added at 15 seconds after the start of the excitation procedure. Antagonists were added five minutes before imaging with the agonists. Images were taken every 5 seconds, including at zero time, during a 90 second period or longer if required. The software later analyzed all images taken during each excitation period. Ratiometric changes were measured in 10-20 cells in each individual experiment. An average of the fluorescence of the cells in each image was calculated and plotted against time in seconds.

MrgX4 (human MRGPRX4) = biological target: T2, MrgX4 (human MRGPRX4) (Homo sapiens, UniProt Q96LA9); conditions: SP 10 μM (FIG. 9)
T2 construct: expressed in transfected cells; host or cells: HeLa cells, pcDNA3.1(-)
Procedure: as §1
(§2) 10 μg of expression vector (human MRGPRX2, mouse MrgprA1 or NK1) and 10 μl of LIPOFECTAMINE 2000 transfection reagent were diluted into 0.5 ml of DMEM and separately left at room temperature (RT) for 5 min. They were then mixed and incubated at RT for 20 minutes prior to being added to HeLa cells. HeLa cells were grown to confluence, trypsinized and 1×10^6 cells were pelleted in a 15 ml tube by centrifugation at 1000 rpm for 5 minutes. […]
(§3) Calcium imaging was performed immediately after loading cells with Fura-2, using a ZEISS Axiovert 200M microscope platform equipped with a flipping filter wheel for ratiometric imaging. […] The software later analyzed all images taken during each excitation period. Ratiometric changes were measured in 10-20 cells in each individual experiment. An average of the fluorescence of the cells in each image was calculated and plotted against time in seconds. […]

MrgX3 (human MRGPRX3) = biological target: T3, MrgX3 (human MRGPRX3) (Homo sapiens, UniProt Q96LB0); conditions: SP 10 μM (FIG. 9)
T3 construct: expressed in transfected cells; host or cells: HeLa cells, pcDNA3.1(-)
Procedure: as §1, §2, §3

T3 sequence (Q96LB0 whole entry): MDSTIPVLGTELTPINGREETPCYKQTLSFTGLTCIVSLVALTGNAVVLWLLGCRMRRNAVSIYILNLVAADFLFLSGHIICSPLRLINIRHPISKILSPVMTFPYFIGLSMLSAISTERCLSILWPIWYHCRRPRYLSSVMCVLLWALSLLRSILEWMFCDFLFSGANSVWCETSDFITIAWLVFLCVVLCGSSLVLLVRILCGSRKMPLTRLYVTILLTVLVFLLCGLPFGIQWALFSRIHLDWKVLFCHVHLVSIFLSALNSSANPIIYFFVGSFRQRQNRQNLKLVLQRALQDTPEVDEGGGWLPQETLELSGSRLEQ
T2 sequence (Q96LA9 whole entry): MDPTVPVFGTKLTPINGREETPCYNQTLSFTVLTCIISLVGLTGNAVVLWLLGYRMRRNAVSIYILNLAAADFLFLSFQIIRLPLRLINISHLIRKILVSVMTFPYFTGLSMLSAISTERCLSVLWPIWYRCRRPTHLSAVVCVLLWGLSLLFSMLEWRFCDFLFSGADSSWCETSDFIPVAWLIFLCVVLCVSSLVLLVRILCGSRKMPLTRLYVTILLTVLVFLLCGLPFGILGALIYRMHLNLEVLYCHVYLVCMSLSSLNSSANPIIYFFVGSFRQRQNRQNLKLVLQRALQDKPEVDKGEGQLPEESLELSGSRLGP

Row | Substance | inhibition of MrgprA3 activation by chloroquine (CQ) (MrgA3 (mouse MrgprA3)) | activation of hMRGPRX4 by the substance (in words) (MrgX4 (human MRGPRX4)) | activation of hMRGPRX3 by the substance (in words) (MrgX3 (human MRGPRX3))
1 | Boc-Gln-D-Trp(Formyl)-Phe benzyl ester trifluoroacetate [QWF] | does not affect; also recorded: does not inhibit | – | –
2 | SP: inflammatory undecapeptide neuropeptide of the tachykinin family, synthesized by GenScript | – | does not activate | does not activate

Source: US10426815B2, “Prevention and treatment of itch with an MRGPR antagonist” (THE GENERAL HOSPITAL CORPORATION, priority 2015, dated 2019)
